# Measured values published in patent publication US20090253630A1 (Eli Lilly, published 2009).
# Groups on a side chain read outwards from the residue. No end group written: not given here. CO‑CH2 = CO-CH2 linker joining mPEG to the Lys side chain
# Legend:
# [1] = molecular target: PTHR-emGFP expressed in transfected HEK 293 cells; assay: cell-based or functional assay
# [2] = molecular target: T1, PTH receptor (PTHR1) on SaOS-2 osteosarcoma cells (UniProt Q03431 27-593, limits assumed); assay: cell-based or functional assay
# T1 sequence (looked up): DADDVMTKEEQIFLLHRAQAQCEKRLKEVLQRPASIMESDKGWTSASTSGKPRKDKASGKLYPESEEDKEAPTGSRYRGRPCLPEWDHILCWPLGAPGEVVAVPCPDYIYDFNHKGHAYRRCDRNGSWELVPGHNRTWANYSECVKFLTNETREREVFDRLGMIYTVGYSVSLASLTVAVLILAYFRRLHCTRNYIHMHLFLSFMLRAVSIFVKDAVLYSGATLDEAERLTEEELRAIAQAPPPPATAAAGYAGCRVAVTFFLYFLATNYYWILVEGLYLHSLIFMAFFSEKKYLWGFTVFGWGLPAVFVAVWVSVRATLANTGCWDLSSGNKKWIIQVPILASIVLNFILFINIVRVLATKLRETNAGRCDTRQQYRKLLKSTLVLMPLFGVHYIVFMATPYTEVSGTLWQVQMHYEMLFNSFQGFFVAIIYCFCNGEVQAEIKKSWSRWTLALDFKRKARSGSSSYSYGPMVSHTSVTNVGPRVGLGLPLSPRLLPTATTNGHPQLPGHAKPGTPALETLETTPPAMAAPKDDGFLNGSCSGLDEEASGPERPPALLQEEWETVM
Binder,"PTHR1 internalization at 20 min, 100 nM compound, percent of vehicle only control (baseline=100%) [1]","PTHR1 internalization at 40 min, 100 nM compound, percent of vehicle only control (baseline=100%) [1]","PTHR1 internalization at 60 min, 100 nM compound, percent of vehicle only control (baseline=100%) [1]","PTHR1 internalization at 180 min, 100 nM compound, percent of vehicle only control (baseline=100%) [1]","Average EC50 (nM) (n = 2), cAMP induction in SaOS-2 cells (HTRF) [2]"
SVSEIQLMHNLGRHLASMERVEWLRKLLQDVHNF (not fully specified (C-terminus)) [SEQ ID NO: 1 but unpegylated and Lysine at amino acid 26],106 % of vehicle only control,126 % of vehicle only control,113 % of vehicle only control,142 % of vehicle only control,
SVSEIQLMHNLGRHLASMERVEWLRK([CO‑CH2-mPEG 5 kD])LLQDVHNF-NH2 (also: trifluoroacetate salt) [SEQ ID NO: 1 with 5 kD mPEG],127 % of vehicle only control,93 % of vehicle only control,91 % of vehicle only control,92 % of vehicle only control,
SVSEIQLMHNLGRHLASMERVEWLRK([CO‑CH2-mPEG 2 kD])LLQDVHNF-NH2 (also: trifluoroacetate salt) [SEQ ID NO: 1 with 2 kD mPEG],160 % of vehicle only control,120 % of vehicle only control,104 % of vehicle only control,102 % of vehicle only control,7.7 nM
